Source: the supplement of paper PMC11865577

Tested on: TO-3-N3 (biotin conjugate)
Assay: pull-down binding Z-score (relative to library population); higher = stronger binding
Details: RNA library: Library-2
Method in brief: (§1)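 Biotin-conjugated small molecule (100 pmol) on streptavidin beads was incubated with 1 μg of heat-folded Cy5- or Cy3-end-labelled RNA library in phosphate/NaCl/KCl buffer at 25 °C for 60 min. Following three washes, RNA was eluted with hot SDS and hybridised at 55.5 °C for 20 h to a DNA barcode microarray. The binding value is a Z-score computed from the library mean and standard deviation, after subtraction of beads without compound and averaging of barcoded replicate probes with the highest and lowest excluded.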

Row | Sequence | pull-down binding Z-score
1 | UAUAGCUACAUCAGUUAUAACUAUAUCAGUUAAA [hsa-mir-5582] | 1.67
2 | UAUAGGAAGGAAAUCUUAU [hsa-mir-6129] | -0.671
3 | UAUAGUGUGUUUGAUUUGCACUGUA [hsa-mir-4703] | -0.156
4 | UAUAUACUGAUGUAAUUUUCCUUGGAUUUAUAUGCAGUACUGAG [hsa-mir-6130] | 0.00904
5 | UAUAUGCUUUUUAAAUGGGGCACAGA [hsa-mir-5586] | -0.275
6 | UAUAUUCGGUUUAUUGACAUGGAAUAUA [hsa-mir-381] | 0.718
7 | UAUCUAUAUAUAUGUGUA [hsa-mir-3171] | -0.0511
8 | UAUGAAGGUAAGCAUUUUUGUA [hsa-mir-3935] | -0.615
9 | UAUGACCAGGCCAUAGUAAACAUCAUA [hsa-mir-4744] | -0.475
10 | UAUGCAAAGCUCUGACAGUGUUUCACUUGCUA [hsa-mir-7848] | -0.489
11 | UAUGCCAUUAAAAGUAAUGGUAAA [hsa-mir-548aj-1] | -0.859
12 | UAUGCCUACAAAAUCCCUCCAGACUGGCAUA [hsa-mir-4666a] | -0.599
13 | UAUGUGAUUCUACUGCUCACUCAUAUA [hsa-mir-135a-1] | 0.402
14 | UAUUCGCUUUAUUGACUUCGAAUA [hsa-mir-369] | -0.0221
15 | UAUUCUCUAU [hsa-mir-2054] | 0.52
16 | UAUUCUGAUGUCCAAGUGGAAA [hsa-mir-372] | -0.733
17 | UAUUGCAAAGAUUUUCAAUA [hsa-mir-3915] | -0.611
18 | UAUUGGGCCAAUUCCCCCAAUG [hsa-mir-4781] | -1.13
19 | UAUUGUGUUGAUCAACAAUA [hsa-mir-5590] | -0.858

Tested on: TO-N3 (biotin conjugate)
Assay: as above
Details: RNA library: Library-2
Method in brief: as §1

Row | Sequence | pull-down binding Z-score
20 | GUUGCUUAGAUUACAUGUAAC [hsa-mir-890] | -0.579
21 | GUUGGAUGGUCUAAUUGUGAAGCUCCUAAC [hsa-mir-141] | -0.138
22 | GUUGGCUCAAGAAAGGGAGAUAGAUGGUAGCCC [hsa-mir-6884] | 1.94
23 | GUUGGGAUUGAGUUUUGAACUCGGC [hsa-mir-196a-2] | -0.0442
24 | GUUGGGCAUCCACAGUCUCCCACC [hsa-mir-1911] | 0.206
25 | GUUGGGGAACAGGUGGUUAGCACUUCAU [hsa-mir-5196] | 1.35
26 | GUUGUUGUCUUACUGCGCUCAACAAC [hsa-mir-7-2] | -0.0893
27 | GUUGUUGUGAGCAAUAGUAAGGAAGCAAU [hsa-mir-34a] | 0.423
28 | GUUGUUUUUAGAUAACUAAAUCGACAAC [hsa-mir-7-1] | 0.59
29 | GUUUACGUGAUUCCUGGUUAAUC [hsa-mir-376b] | -0.0962
30 | GUUUAUUUUGUAGC [hsa-mir-4317] | 0.221
31 | GUUUCUAAAAAAAUAAAAAGUUAAAAAAAUUUAUGUUAACGUGUAAUGUGUUUACUAAUUUUUUUUUUUUUUUUUGGAGAC [hsa-mir-3908] | -0.136
32 | GUUUCUGUUGUCUGAAAGGAAAGAAAG [hsa-mir-520e] | -0.486
33 | GUUUGAUAGUUUAGACACAAAC [hsa-mir-3591] | 0.263
34 | GUUUGCAAGGGGUGUUUCUGUCCAUGGUCAGGC [hsa-mir-4283-1_4283-2] | 0.778
35 | GUUUGCCUGUUAAUGAAUUCAAAC [hsa-mir-3129] | 0.513
36 | GUUUGGCAGGACAGUUUCCAAGC [hsa-mir-6779] | -0.451
37 | GUUUGGGUGCGGUUGGGAGUCUCUAAU [hsa-mir-200c] | 1.67
38 | GUUUUACUAUGAUGAGGUGUGCCAUCCACCCCAUCAUAGUAAAC [hsa-mir-606] | -0.422
39 | GUUUUUUAAGAGGAAGGGAGACCUAAGCUAGCA [hsa-mir-4481] | 0.507
40 | UAAAGAGUAUUCAACAUC [hsa-mir-1245b] | -0.49
41 | UAAGAGUAAUAGCUCUCUAGGUUAUUAUGAAUA [hsa-mir-5692c-1] | -0.449
42 | UAAGUGUCCUAGCACUUA [hsa-mir-374b] | -0.0395
43 | UAAGUGUUAUAGCACUUA [hsa-mir-374a] | -1.38
44 | UAAGUUGUGAUCAUACCA [hsa-mir-1273g] | -0.24

Row | Sequence | pull-down binding Z-score
45 | UAAUAACUGACAAACAGACAAUUG [hsa-mir-4774] | -0.376
46 | UAAUAGCAAUCCUUAAAUGCCAUUA [hsa-mir-4477b] | -1.24
47 | UAAUAUGCACUAUAAAUAUAUUG [hsa-mir-450a-1] | -1.16
48 | UAAUAUGUAAUAUAAAUGUAUUG [hsa-mir-450a-2] | -0.167
49 | UAAUCACAGGCCACAUUUCUGAAUA [hsa-mir-1295b] | -0.716
50 | UAAUGAUUGGAGUCAUUUUCAGAGCAUUA [hsa-mir-3202-1] | -0.407
51 | UAAUGCUCUGAAAAUGACUCCAAUCAUUA [hsa-mir-3202-2] | -0.741
52 | UACAAUUUUUUUUUUUUUAAAUUUUA [hsa-mir-1303] | -0.893
53 | UACAUAGUUCAUGCUGAGGCCGGGAUUUCAUGCAGAAAACUGGUUGCAAAAGGUGCUGAAG [hsa-mir-6085] | 0.573
54 | UACUAACAGCACUGGAGGGUGUA [hsa-mir-142] | 0.114
55 | UAGACAAUGGUUUCAUCAUUUCGUCUG [hsa-mir-4427] | -0.379
56 | UAGAGGGUAAAAUUAAUAACCUUCUA [hsa-mir-628] | -0.152
57 | UAGAGUAGGAGAGCCCACUGA [hsa-mir-6846] | 1.28
58 | UAGAUACUCAGGAGGGUGAGUAUCUA [hsa-mir-5689] | -0.797
59 | UAGAUGAAUAAAUGAAUGACUCAUCA [hsa-mir-545] | -0.414
60 | UAGAUGUUAUAAAAAUAUAUAUCUG [hsa-mir-4680] | -1.08
61 | UAGGAGCUGUGCCUCCUGGCCUAUUCCUGUUCGUG [hsa-mir-8056] | 0.0941
62 | UAGGAUUUGGGAGUUAUACUA [hsa-mir-5690] | -0.492
63 | UAGGCCCACUGCUCAGUGGAGC [hsa-mir-7847] | 0.139
64 | UAGGCUGUGCAGGUCCCAAUGGGCCUA [hsa-mir-26a-1] | 0.151
65 | UAGGCUGUUUCCAUCUGUGAGGCCUA [hsa-mir-26a-2] | -0.233
66 | UAGGGCGCGGAGGGCGGACCGGGAA [hsa-mir-638] | 5.19
67 | UAGGGCUGGAUGGUAGGGCCCA [hsa-mir-6890] | 0.642
68 | UAGGUGGUCGAAGUCAUCCACA [hsa-mir-7153] | 0.131
69 | UAGGUUGUGUGCUGUCCAGCCUG [hsa-mir-26b] | -0.388

Row | Sequence | pull-down binding Z-score
70 | UAGGUUGUUAUUUAAUCCAACU [hsa-mir-190a] | -0.267
71 | UAGUACAGGUGAGAUUGUACUG [hsa-mir-3920] | -0.888
72 | UAGUCUAAUAGGGACUA [hsa-mir-5681b] | -0.292
73 | UAGUGGAAAGAGCACUG [hsa-mir-378b] | -0.347
74 | UAUAACUUGAAGAAUUCAAAUAGUCAUG [hsa-mir-3146] | -1.06
75 | UAUAGCUACAUCAGUUAUAACUAUAUCAGUUAAA [hsa-mir-5582] | 1.57
76 | UAUAGGAAGGAAAUCUUAU [hsa-mir-6129] | -0.641
77 | UAUAGUGUGUUUGAUUUGCACUGUA [hsa-mir-4703] | -0.424
78 | UAUAUACUGAUGUAAUUUUCCUUGGAUUUAUAUGCAGUACUGAG [hsa-mir-6130] | 0.102
79 | UAUAUGCUUUUUAAAUGGGGCACAGA [hsa-mir-5586] | -0.26
80 | UAUAUUCGGUUUAUUGACAUGGAAUAUA [hsa-mir-381] | 0.706
81 | UAUCUAUAUAUAUGUGUA [hsa-mir-3171] | -0.0908
82 | UAUGAAGGUAAGCAUUUUUGUA [hsa-mir-3935] | -0.614
83 | UAUGACCAGGCCAUAGUAAACAUCAUA [hsa-mir-4744] | -0.247
84 | UAUGCAAAGCUCUGACAGUGUUUCACUUGCUA [hsa-mir-7848] | -0.256
85 | UAUGCCAUUAAAAGUAAUGGUAAA [hsa-mir-548aj-1] | -1.23
86 | UAUGCCUACAAAAUCCCUCCAGACUGGCAUA [hsa-mir-4666a] | -0.78
87 | UAUGUGAUUCUACUGCUCACUCAUAUA [hsa-mir-135a-1] | 0.212
88 | UAUUCGCUUUAUUGACUUCGAAUA [hsa-mir-369] | -0.246
89 | UAUUCUCUAU [hsa-mir-2054] | 0.367
90 | UAUUCUGAUGUCCAAGUGGAAA [hsa-mir-372] | -0.772
91 | UAUUGCAAAGAUUUUCAAUA [hsa-mir-3915] | -0.988
92 | UAUUGGGCCAAUUCCCCCAAUG [hsa-mir-4781] | -1.38
93 | UAUUGUGUUGAUCAACAAUA [hsa-mir-5590] | -0.668
